Source: PMC4022893

What was measured:
[1] = target: FSHR of the PathHunter FSHR β-arrestin assay cells (UniProt P23945); assay: split reporter (BiFC, NanoBiT); PathHunter FSHR β-arrestin recruitment assay (DiscoveRx 93-0517C2) in CHO cells; cells stimulated with FSH, Compound 5, both, or the βT60E mutant; recruited β-arrestin normalized to 100% for the maximum response of FSH
[2] = 125I-FSH binding to CHO-hFSHR membranes ± Compound 5; details: glycan lost; control: glycosylated FSH (about 3-fold more binding with Compound 5)

Chain of FSHR of the PathHunter FSHR β-arrestin assay cells (P23945 18-695): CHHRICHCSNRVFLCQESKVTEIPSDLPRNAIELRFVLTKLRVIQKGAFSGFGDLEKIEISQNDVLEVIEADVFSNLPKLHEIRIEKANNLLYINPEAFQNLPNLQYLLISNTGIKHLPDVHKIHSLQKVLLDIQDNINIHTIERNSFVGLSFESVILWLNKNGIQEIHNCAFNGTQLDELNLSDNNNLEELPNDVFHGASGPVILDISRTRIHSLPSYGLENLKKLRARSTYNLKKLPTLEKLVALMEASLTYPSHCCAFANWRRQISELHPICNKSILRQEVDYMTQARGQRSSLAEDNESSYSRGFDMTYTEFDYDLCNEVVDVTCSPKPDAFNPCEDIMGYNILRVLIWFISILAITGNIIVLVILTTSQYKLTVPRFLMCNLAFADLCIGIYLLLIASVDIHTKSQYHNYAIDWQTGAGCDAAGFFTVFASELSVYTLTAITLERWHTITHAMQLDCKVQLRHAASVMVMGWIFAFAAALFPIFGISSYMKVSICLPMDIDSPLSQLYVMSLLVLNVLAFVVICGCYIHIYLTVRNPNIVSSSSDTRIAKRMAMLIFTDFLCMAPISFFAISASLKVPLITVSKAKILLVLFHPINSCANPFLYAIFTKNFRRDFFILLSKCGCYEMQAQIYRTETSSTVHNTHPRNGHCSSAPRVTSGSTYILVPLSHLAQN
Chain of β-arrestin of the PathHunter FSHR β-arrestin assay cells (P32121 whole entry): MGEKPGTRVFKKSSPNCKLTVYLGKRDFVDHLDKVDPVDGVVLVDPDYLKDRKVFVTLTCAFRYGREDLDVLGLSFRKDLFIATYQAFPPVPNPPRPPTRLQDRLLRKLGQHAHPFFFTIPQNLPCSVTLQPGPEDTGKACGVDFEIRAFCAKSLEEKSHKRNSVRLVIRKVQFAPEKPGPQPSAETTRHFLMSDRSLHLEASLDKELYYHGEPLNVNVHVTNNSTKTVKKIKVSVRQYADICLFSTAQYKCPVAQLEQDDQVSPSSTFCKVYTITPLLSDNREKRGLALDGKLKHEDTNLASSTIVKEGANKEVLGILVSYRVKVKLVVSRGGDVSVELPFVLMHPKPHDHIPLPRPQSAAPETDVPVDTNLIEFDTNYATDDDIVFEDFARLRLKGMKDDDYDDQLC
Chain of FSH α-subunit: αN52D (chain, as listed by the source N52D): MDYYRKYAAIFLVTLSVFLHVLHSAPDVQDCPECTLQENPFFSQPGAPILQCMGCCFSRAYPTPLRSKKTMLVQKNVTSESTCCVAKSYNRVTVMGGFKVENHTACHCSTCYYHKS

| β-arrestin recruited with Compound 5 plus FSH at EC100, percent of the maximum with FSH alone [1] [%] | β-arrestin recruited with FSH plus a high concentration of Compound 5, percent of the maximum with FSH alone [1] [%] | Substance | other: Compound 5 enhancement of FSHR binding [2] |
| --- | --- | --- | --- |
| 280 | 280 | β-arrestin of the PathHunter FSHR β-arrestin assay cells (from UniProt P32121 1-409) (natural protein) |  |
|  |  | FSH α-subunit: αN52D | decreases |
